Reference: patent US20180362668A1 (JIANGSU ALPHAMAB BIOPHARMACEUTICALS, published 2018)

Legend:
[1] = target: the molecule itself; test: non-reducing SDS-PAGE densitometry of Protein A-purified co-transfection product; chain A:chain B vectors 1:1
Source text: The cotransfection ratio of recombinant expression vector of the chain A to that of the chain B was 1:1.

[2] = target: the molecule itself; test: as above; remark: listed apart in the source
Source text: (§1) The cotransfection ratio of recombinant expression vector of the chain A to that of the chain B was 4:1, 1:1 and 1:4.

[3] = target: the molecule itself; test: non-reducing SDS-PAGE densitometry of Protein A-purified co-transfection product; chain A:chain B vectors 1:4
Source text: as §1

[4] = target: the molecule itself; test: non-reducing SDS-PAGE densitometry of Protein A-purified co-transfection product; chain A:chain B vectors 4:1
Source text: as §1

Protein | ScFv-Fc homodimer (%) [1] [%] | ScFv-Fc homodimer (%) [2] [%] | ScFv-Fc homodimer (%) [3] [%] | ScFv-Fc homodimer (%) [4] [%] | other results
ScFv-Fc fusion protein chain A with Y349C + T366W + K409A + L368E (Fc fusion, Positions are EU index; also called combination 9 chain A) EVQLLESGGGVVQPGRSLRLSCIASGFTFSSYPMTWVRQAPGKGLEWVASISYDGSYKYKADSMKGRLTISRDNSKNTLYLEMNSLTAEDTAVYYCARTAFFNAYDFWGQGTLVTVSSASTKGPSVGGGGSGGGGSEIVMTQSPATLSVSPGERATLSCRASQSVRSNLAWYQQKPGQAPRLLIYAASTRATGIPARFSGSGSGTEFTLTISSLQSEDFAVYYCQQYNEWFRTSGQGTKVEIKRDKTHTCPPCPAPELLGGPSVFLFPPKPKDTLMISRTPEVTCVVVDVSHENPEVKFNWYVDGVEVHNAKTKPREEQYNSTYRVVSVLTVLHQDWLNGKEYKCKVSNKALPAPIEKTISKAKGQPREPQVCTLPPSRDELTKNQVSLWCEVKGFYPSDIAVEWESNGQPENNYKTTPPVLDSDGSFFLYSALTVDKSRWQQGNVFSCSVMHEALHNHYTQKSLSLSPGK | 39 | – | – | – | –
ScFv-Fc fusion protein chain A with T366W + K409A + K392D (Fc fusion, Positions are EU index; also called combination 10 chain A) EVQLLESGGGVVQPGRSLRLSCIASGFTFSSYPMTWVRQAPGKGLEWVASISYDGSYKYKADSMKGRLTISRDNSKNTLYLEMNSLTAEDTAVYYCARTAFFNAYDFWGQGTLVTVSSASTKGPSVGGGGSGGGGSEIVMTQSPATLSVSPGERATLSCRASQSVRSNLAWYQQKPGQAPRLLIYAASTRATGIPARFSGSGSGTEFTLTISSLQSEDFAVYYCQQYNEWFRTSGQGTKVEIKRDKTHTCPPCPAPELLGGPSVFLFPPKPKDTLMISRTPEVTCVVVDVSHENPEVKFNWYVDGVEVHNAKTKPREEQYNSTYRVVSVLTVLHQDWLNGKEYKCKVSNKALPAPIEKTISKAKGQPREPQVYTLPPSRDELTKNQVSLWCLVKGFYPSDIAVEWESNGQPENNYDTTPPVLDSDGSFFLYSALTVDKSRWQQGNVFSCSVMHEALHNHYTQKSLSLSPGK | – | 7 | < 1 | 39 | –
ScFv-Fc fusion protein chain A with Y349C + T366W + K409A + Q347R (Fc fusion, Positions are EU index; also called combination 8 chain A) EVQLLESGGGVVQPGRSLRLSCIASGFTFSSYPMTWVRQAPGKGLEWVASISYDGSYKYKADSMKGRLTISRDNSKNTLYLEMNSLTAEDTAVYYCARTAFFNAYDFWGQGTLVTVSSASTKGPSVGGGGSGGGGSEIVMTQSPATLSVSPGERATLSCRASQSVRSNLAWYQQKPGQAPRLLIYAASTRATGIPARFSGSGSGTEFTLTISSLQSEDFAVYYCQQYNEWFRTSGQGTKVEIKRDKTHTCPPCPAPELLGGPSVFLFPPKPKDTLMISRTPEVTCVVVDVSHENPEVKFNWYVDGVEVHNAKTKPREEQYNSTYRVVSVLTVLHQDWLNGKEYKCKVSNKALPAPIEKTISKAKGQPREPRVCTLPPSRDELTKNQVSLWCLVKGFYPSDIAVEWESNGQPENNYKTTPPVLDSDGSFFLYSALTVDKSRWQQGNVFSCSVMHEALHNHYTQKSLSLSPGK | 21 | – | – | – | –
ScFv-Fc fusion protein chain A with Y349C + T366W + F405K + K360E + Q347E (Fc fusion, Positions are EU index; also called combination 5 chain A) EVQLLESGGGVVQPGRSLRLSCIASGFTFSSYPMTWVRQAPGKGLEWVASISYDGSYKYKADSMKGRLTISRDNSKNTLYLEMNSLTAEDTAVYYCARTAFFNAYDFWGQGTLVTVSSASTKGPSVGGGGSGGGGSEIVMTQSPATLSVSPGERATLSCRASQSVRSNLAWYQQKPGQAPRLLIYAASTRATGIPARFSGSGSGTEFTLTISSLQSEDFAVYYCQQYNEWFRTSGQGTKVEIKRDKTHTCPPCPAPELLGGPSVFLFPPKPKDTLMISRTPEVTCVVVDVSHENPEVKFNWYVDGVEVHNAKTKPREEQYNSTYRVVSVLTVLHQDWLNGKEYKCKVSNKALPAPIEKTISKAKGQPREPEVCTLPPSRDELTENQVSLWCLVKGFYPSDIAVEWESNGQPENNYKTTPPVLDSDGSFKLYSKLTVDKSRWQQGNVFSCSVMHEALHNHYTQKSLSLSPGK | 14 | – | – | – | –
ScFv-Fc fusion protein chain A with Y349C + T366W + K409A + K360E + Q347E (Fc fusion, Positions are EU index; also called combination 7 chain A) EVQLLESGGGVVQPGRSLRLSCIASGFTFSSYPMTWVRQAPGKGLEWVASISYDGSYKYKADSMKGRLTISRDNSKNTLYLEMNSLTAEDTAVYYCARTAFFNAYDFWGQGTLVTVSSASTKGPSVGGGGSGGGGSEIVMTQSPATLSVSPGERATLSCRASQSVRSNLAWYQQKPGQAPRLLIYAASTRATGIPARFSGSGSGTEFTLTISSLQSEDFAVYYCQQYNEWFRTSGQGTKVEIKRDKTHTCPPCPAPELLGGPSVFLFPPKPKDTLMISRTPEVTCVVVDVSHENPEVKFNWYVDGVEVHNAKTKPREEQYNSTYRVVSVLTVLHQDWLNGKEYKCKVSNKALPAPIEKTISKAKGQPREPEVCTLPPSRDELTENQVSLWCLVKGFYPSDIAVEWESNGQPENNYKTTPPVLDSDGSFFLYSALTVDKSRWQQGNVFSCSVMHEALHNHYTQKSLSLSPGK | 24 | – | – | – | –
ScFv-Fc fusion protein chain A with Y349C + T366W + F405K + Q347R (Fc fusion, Positions are EU index; also called combination 6 chain A) EVQLLESGGGVVQPGRSLRLSCIASGFTFSSYPMTWVRQAPGKGLEWVASISYDGSYKYKADSMKGRLTISRDNSKNTLYLEMNSLTAEDTAVYYCARTAFFNAYDFWGQGTLVTVSSASTKGPSVGGGGSGGGGSEIVMTQSPATLSVSPGERATLSCRASQSVRSNLAWYQQKPGQAPRLLIYAASTRATGIPARFSGSGSGTEFTLTISSLQSEDFAVYYCQQYNEWFRTSGQGTKVEIKRDKTHTCPPCPAPELLGGPSVFLFPPKPKDTLMISRTPEVTCVVVDVSHENPEVKFNWYVDGVEVHNAKTKPREEQYNSTYRVVSVLTVLHQDWLNGKEYKCKVSNKALPAPIEKTISKAKGQPREPRVCTLPPSRDELTKNQVSLWCLVKGFYPSDIAVEWESNGQPENNYKTTPPVLDSDGSFKLYSKLTVDKSRWQQGNVFSCSVMHEALHNHYTQKSLSLSPGK | 14 | – | – | – | –
ScFv-Fc fusion protein chain A with T366W + K409A (Fc fusion, Positions are EU index; also called combination 11 chain A) EVQLLESGGGVVQPGRSLRLSCIASGFTFSSYPMTWVRQAPGKGLEWVASISYDGSYKYKADSMKGRLTISRDNSKNTLYLEMNSLTAEDTAVYYCARTAFFNAYDFWGQGTLVTVSSASTKGPSVGGGGSGGGGSEIVMTQSPATLSVSPGERATLSCRASQSVRSNLAWYQQKPGQAPRLLIYAASTRATGIPARFSGSGSGTEFTLTISSLQSEDFAVYYCQQYNEWFRTSGQGTKVEIKRDKTHTCPPCPAPELLGGPSVFLFPPKPKDTLMISRTPEVTCVVVDVSHENPEVKFNWYVDGVEVHNAKTKPREEQYNSTYRVVSVLTVLHQDWLNGKEYKCKVSNKALPAPIEKTISKAKGQPREPQVYTLPPSRDELTKNQVSLWCLVKGFYPSDIAVEWESNGQPENNYKTTPPVLDSDGSFFLYSALTVDKSRWQQGNVFSCSVMHEALHNHYTQKSLSLSPGK | – | 15 | 11 | 52 | –
ScFv-Fc fusion protein chain A with T366W + K409A + Y349D (Fc fusion, Positions are EU index; it is not used here; also called combination 12 chain A) EVQLLESGGGVVQPGRSLRLSCIASGFTFSSYPMTWVRQAPGKGLEWVASISYDGSYKYKADSMKGRLTISRDNSKNTLYLEMNSLTAEDTAVYYCARTAFFNAYDFWGQGTLVTVSSASTKGPSVGGGGSGGGGSEIVMTQSPATLSVSPGERATLSCRASQSVRSNLAWYQQKPGQAPRLLIYAASTRATGIPARFSGSGSGTEFTLTISSLQSEDFAVYYCQQYNEWFRTSGQGTKVEIKRDKTHTCPPCPAPELLGGPSVFLFPPKPKDTLMISRTPEVTCVVVDVSHENPEVKFNWYVDGVEVHNAKTKPREEQYNSTYRVVSVLTVLHQDWLNGKEYKCKVSNKALPAPIEKTISKAKGQPREPQVDTLPPSRDELTKNQVSLWCLVKGFYPSDIAVEWESNGQPENNYKTTPPVLDSDGSFFLYSALTVDKSRWQQGNVFSCSVMHEALHNHYTQKSLSLSPGK | – | 14 | 9 | 48 | –
ScFv-Fc fusion protein chain A with T366W + K409A + Y349D + S354D (Fc fusion, Positions are EU index; also called combination 13 chain A) EVQLLESGGGVVQPGRSLRLSCIASGFTFSSYPMTWVRQAPGKGLEWVASISYDGSYKYKADSMKGRLTISRDNSKNTLYLEMNSLTAEDTAVYYCARTAFFNAYDFWGQGTLVTVSSASTKGPSVGGGGSGGGGSEIVMTQSPATLSVSPGERATLSCRASQSVRSNLAWYQQKPGQAPRLLIYAASTRATGIPARFSGSGSGTEFTLTISSLQSEDFAVYYCQQYNEWFRTSGQGTKVEIKRDKTHTCPPCPAPELLGGPSVFLFPPKPKDTLMISRTPEVTCVVVDVSHENPEVKFNWYVDGVEVHNAKTKPREEQYNSTYRVVSVLTVLHQDWLNGKEYKCKVSNKALPAPIEKTISKAKGQPREPQVDTLPPDRDELTKNQVSLWCLVKGFYPSDIAVEWESNGQPENNYKTTPPVLDSDGSFFLYSALTVDKSRWQQGNVFSCSVMHEALHNHYTQKSLSLSPGK | – | 10 | 2 | 37 | –
Fc protein chain B with D356C + T366S + L368A + Y407V + K360E + Q347E (other, also called combination 6 chain B) DKTHTCPPCPAPELLGGPSVFLFPPKPKDTLMISRTPEVTCVVVDVSHEDPEVKFNWYVDGVEVHNAKTKPREEQYNSTYRVVSVLTVLHQDWLNGKEYKCKVSNKALPAPIEKTISKAKGQPREPEVYTLPPSRCELTENQVSLSCAVKGFYPSDIAVEWESNGQPENNYKTTPPVLDSDGSFFLVSKLTVDKSRWQQGNVFSCSVMHEALHNHYTQKSLSLSPGK | – | – | – | – | Proportion of Fc homodimer (%) [1]: 24%
Fc protein chain B with D356C + T366S + L368A + Y407V + F405K + K360E + Q347E (other, also called combination 8 chain B) DKTHTCPPCPAPELLGGPSVFLFPPKPKDTLMISRTPEVTCVVVDVSHEDPEVKFNWYVDGVEVHNAKTKPREEQYNSTYRVVSVLTVLHQDWLNGKEYKCKVSNKALPAPIEKTISKAKGQPREPEVYTLPPSRCELTENQVSLSCAVKGFYPSDIAVEWESNGQPENNYKTTPPVLDSDGSFKLVSKLTVDKSRWQQGNVFSCSVMHEALHNHYTQKSLSLSPGK | – | – | – | – | Proportion of Fc homodimer (%) [1]: 8%
Fc protein chain B with D356C + T366S + L368A + Y407V + F405K + Q347R (other, also called combination 7 chain B) DKTHTCPPCPAPELLGGPSVFLFPPKPKDTLMISRTPEVTCVVVDVSHEDPEVKFNWYVDGVEVHNAKTKPREEQYNSTYRVVSVLTVLHQDWLNGKEYKCKVSNKALPAPIEKTISKAKGQPREPRVYTLPPSRCELTKNQVSLSCAVKGFYPSDIAVEWESNGQPENNYKTTPPVLDSDGSFKLVSKLTVDKSRWQQGNVFSCSVMHEALHNHYTQKSLSLSPGK | – | – | – | – | Proportion of Fc homodimer (%) [1]: 12%
